In PMC3284512:
Values belong to the molecule of their own block, whether it stands above or below them.

What was measured:
[1] = system: MA3 (DNA, aptamer) AACCGCCCAAATCCCTAAGAGTCGGACTGCAACCTATGCTATCGTTGATGTCTGTCCAAGCAACACAGACACACTACACACGCACA; assay: fluorescence quenching of doxorubicin; conditions: aqueous solution, 1 h; Dox 3 nM as printed; intercalation; quenching complete at aptamer/Dox 0.1
[2] = molecular target: T1, MUC1 peptide1 (APDTRPAPG epitope) (UniProt P15941); assay: flow cytometry, bead binding; Hanks buffer (binding buffer), 37 C, 30 min, 200 ul; aptamer DNA heated 95 C 5 min then cooled to 0 C (stated for SELEX pool and Dox loading); pH not stated; conditions: tags: EDC-coupled to carboxylated magnetic beads; label: 5'-FITC
T1 chain: APDTRPAPG

[3] = molecular target: T2, MUC1 peptide2 (entire tandem repeat) (UniProt P15941); assay: as above; conditions: tags: EDC-coupled to magnetic beads; label: 5'-FITC
T2 chain: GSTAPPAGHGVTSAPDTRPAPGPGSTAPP

binding [1]: yes
Molecule: COc1cccc2c1C(=O)c1c(O)c3c(c(O)c1C2=O)C[C@@](O)(C(=O)CO)C[C@@H]3O[C@H]1C[C@H](N)[C@H](O)[C@H](C)O1

B1: MA3 (ssDNA)
DNA: AACCGCCCAAATCCCTAAGAGTCGGACTGCAACCTATGCTATCGTTGATGTCTGTCCAAGCAACACAGACACACTACACACGCACA
Kd [2]: 38.3 nM
binding result [3]: binds
